Experimental data published in paper PMC9482650, “Quantitative fragmentomics allow affinity mapping of interactomes” (Nature Communications, 2022).

What was measured:
Test in all cases: holdup assay
Set-up in all cases: key: below the threshold = too weak to quantify, mostly under pKd 3.1 to 4
GRIP2_4, Q9C0E4 = biological target: GRIP2_4, Q9C0E4
SCRIB_2, Q14160 = biological target: SCRIB_2, Q14160
GOPC, Q9HD26 = biological target: GOPC, Q9HD26
TJP3_3, O95049 = biological target: T1, TJP3_3, O95049
T1 sequence (O95049 375-456, limits assumed, looked up): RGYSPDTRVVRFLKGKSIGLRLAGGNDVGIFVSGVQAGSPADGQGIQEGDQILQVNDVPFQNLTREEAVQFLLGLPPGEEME

MAST1, Q9Y2H9 = biological target: MAST1, Q9Y2H9
MAST1, Q9Y2H9, sequence (Q9Y2H9 962-1065): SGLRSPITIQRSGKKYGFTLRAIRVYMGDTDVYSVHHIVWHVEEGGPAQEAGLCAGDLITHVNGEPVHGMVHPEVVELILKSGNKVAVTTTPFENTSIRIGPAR

PDZD2_2, O15018 = biological target: T2, PDZD2_2, O15018
T2 sequence (O15018 329-429, limits assumed, looked up): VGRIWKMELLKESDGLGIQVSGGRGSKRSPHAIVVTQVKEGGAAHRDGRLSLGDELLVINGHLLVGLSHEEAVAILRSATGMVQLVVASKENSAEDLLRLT

LNX1_3, Q8TBB1 = biological target: LNX1_3, Q8TBB1
LNX1_3, Q8TBB1, sequence (Q8TBB1 500-596): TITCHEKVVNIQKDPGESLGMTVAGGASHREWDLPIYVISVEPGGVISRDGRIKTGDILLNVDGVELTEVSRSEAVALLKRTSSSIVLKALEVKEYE

MAGI2_3, Q86UL8 = biological target: MAGI2_3, Q86UL8
MAGI2_3, Q86UL8, sequence (Q86UL8 600-682): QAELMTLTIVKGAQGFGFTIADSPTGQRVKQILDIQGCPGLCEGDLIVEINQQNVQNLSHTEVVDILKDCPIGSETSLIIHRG

PTPN3, P26045 = biological target: PTPN3, P26045
PTPN3, P26045, sequence (P26045 505-587): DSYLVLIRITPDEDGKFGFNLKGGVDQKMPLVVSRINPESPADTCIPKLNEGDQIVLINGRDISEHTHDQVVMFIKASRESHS

SNTG1, Q9NSN8 = biological target: T3, SNTG1, Q9NSN8
T3 sequence (Q9NSN8 52-150, limits assumed, looked up): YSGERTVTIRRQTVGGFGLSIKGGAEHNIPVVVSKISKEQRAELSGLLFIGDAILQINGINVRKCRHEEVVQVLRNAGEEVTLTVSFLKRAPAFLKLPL

Inadl_5, Q8NI35 = biological target: Inadl_5, Q8NI35
Inadl_5, Q8NI35, sequence (Q8NI35 673-780): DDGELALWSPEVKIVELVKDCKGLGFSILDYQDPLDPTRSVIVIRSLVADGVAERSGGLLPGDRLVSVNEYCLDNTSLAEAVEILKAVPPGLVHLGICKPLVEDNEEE

FRMPD2_1, Q68DX3 = biological target: FRMPD2_1, Q68DX3
FRMPD2_1, Q68DX3, sequence (Q68DX3 770-861): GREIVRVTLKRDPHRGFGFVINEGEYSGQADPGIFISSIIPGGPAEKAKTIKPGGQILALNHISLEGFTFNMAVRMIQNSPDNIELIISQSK

GRIP2_3, Q9C0E4 = biological target: GRIP2_3, Q9C0E4
GRIP2_3, Q9C0E4, sequence (Q9C0E4 238-339): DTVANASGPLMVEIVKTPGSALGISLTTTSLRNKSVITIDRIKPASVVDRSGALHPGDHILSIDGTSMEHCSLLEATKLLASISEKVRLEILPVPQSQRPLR

MAGI2_5, Q86UL8 = biological target: MAGI2_5, Q86UL8
MAGI2_5, Q86UL8, sequence (Q86UL8 915-1017): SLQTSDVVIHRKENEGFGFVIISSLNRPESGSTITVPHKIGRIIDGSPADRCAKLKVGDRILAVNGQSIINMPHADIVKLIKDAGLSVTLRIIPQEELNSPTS

HTRA4, P83105 = biological target: T4, HTRA4, P83105
T4 sequence (P83105 378-476, limits assumed, looked up): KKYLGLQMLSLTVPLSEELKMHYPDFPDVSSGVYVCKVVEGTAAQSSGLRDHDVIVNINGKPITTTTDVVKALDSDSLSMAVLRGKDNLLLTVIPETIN

NHERF4_2, Q86UT5 = biological target: NHERF4_2, Q86UT5
NHERF4_2, Q86UT5, sequence (Q86UT5 220-308): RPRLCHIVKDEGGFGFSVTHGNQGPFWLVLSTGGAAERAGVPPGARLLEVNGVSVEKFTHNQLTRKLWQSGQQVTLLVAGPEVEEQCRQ

CARD11, Q9BXL7 = biological target: T5, CARD11, Q9BXL7
T5 sequence (Q9BXL7 662-765, limits assumed, looked up): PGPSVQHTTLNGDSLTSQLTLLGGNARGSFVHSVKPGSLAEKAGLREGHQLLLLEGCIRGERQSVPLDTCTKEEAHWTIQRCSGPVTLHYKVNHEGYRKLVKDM

PICK1, Q9NRD5 = biological target: PICK1, Q9NRD5
PICK1, Q9NRD5, sequence (Q9NRD5 17-115): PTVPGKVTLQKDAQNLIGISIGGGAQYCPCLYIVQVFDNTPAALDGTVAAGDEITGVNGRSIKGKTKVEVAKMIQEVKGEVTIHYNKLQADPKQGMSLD

NHERF3_3, Q5T2W1 = biological target: T6, NHERF3_3, Q5T2W1
T6 sequence (Q5T2W1 238-333, limits assumed, looked up): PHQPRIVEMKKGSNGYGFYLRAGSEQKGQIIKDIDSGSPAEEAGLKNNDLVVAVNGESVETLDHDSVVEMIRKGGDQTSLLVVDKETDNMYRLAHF

MAGI2_4, Q86UL8 = biological target: MAGI2_4, Q86UL8
MAGI2_4, Q86UL8, sequence (Q86UL8 772-865): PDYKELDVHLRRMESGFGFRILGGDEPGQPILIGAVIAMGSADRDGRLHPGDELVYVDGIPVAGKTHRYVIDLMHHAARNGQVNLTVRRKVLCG

GRIP1_2, Q9Y3R0 = biological target: T7, GRIP1_2, Q9Y3R0
T7 sequence (Q9Y3R0 145-248, limits assumed, looked up): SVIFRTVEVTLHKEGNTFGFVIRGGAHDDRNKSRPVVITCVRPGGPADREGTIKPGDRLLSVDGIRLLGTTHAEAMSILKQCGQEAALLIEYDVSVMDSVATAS

Inadl_6, Q8NI35 = biological target: Inadl_6, Q8NI35
Inadl_6, Q8NI35, sequence (Q8NI35 1058-1167): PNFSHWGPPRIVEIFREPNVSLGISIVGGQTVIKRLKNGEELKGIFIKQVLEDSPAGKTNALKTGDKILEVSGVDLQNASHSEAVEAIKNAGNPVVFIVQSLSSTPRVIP

DLG2_2, Q15700 = biological target: DLG2_2, Q15700
DLG2_2, Q15700, sequence (Q15700 189-283): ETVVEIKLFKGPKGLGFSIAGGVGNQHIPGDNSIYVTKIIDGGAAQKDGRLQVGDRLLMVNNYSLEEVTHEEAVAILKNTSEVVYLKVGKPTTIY

CASK, O14936 = biological target: CASK, O14936
CASK, O14936, sequence (O14936 487-570): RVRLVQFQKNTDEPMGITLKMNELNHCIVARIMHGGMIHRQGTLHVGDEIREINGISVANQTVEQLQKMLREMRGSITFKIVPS

HTRA1, Q92743 = biological target: HTRA1, Q92743
HTRA1, Q92743, sequence (Q92743 360-477): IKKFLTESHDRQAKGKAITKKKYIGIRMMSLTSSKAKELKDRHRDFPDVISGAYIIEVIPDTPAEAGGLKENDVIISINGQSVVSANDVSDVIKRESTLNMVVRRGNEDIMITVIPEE

SIPA1L2, Q9P2F8 = biological target: T8, SIPA1L2, Q9P2F8
T8 sequence (Q9P2F8 945-1036, limits assumed, looked up): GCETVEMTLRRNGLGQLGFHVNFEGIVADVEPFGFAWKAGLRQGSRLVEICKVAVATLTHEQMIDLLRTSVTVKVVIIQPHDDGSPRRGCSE

LDB3, O75112 = biological target: LDB3, O75112
LDB3, O75112, sequence (O75112 1-94): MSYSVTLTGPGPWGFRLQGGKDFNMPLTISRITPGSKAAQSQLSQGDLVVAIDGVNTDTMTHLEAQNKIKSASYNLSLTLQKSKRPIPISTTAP

NHERF3_4, Q5T2W1 = biological target: T9, NHERF3_4, Q5T2W1
T9 sequence (Q5T2W1 373-468, limits assumed, looked up): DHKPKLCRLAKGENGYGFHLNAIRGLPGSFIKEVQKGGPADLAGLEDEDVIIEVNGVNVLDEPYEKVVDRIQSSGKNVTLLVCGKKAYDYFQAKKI

SNTA1, Q13424 = biological target: T10, SNTA1, Q13424
T10 sequence (Q13424 82-180, limits assumed, looked up): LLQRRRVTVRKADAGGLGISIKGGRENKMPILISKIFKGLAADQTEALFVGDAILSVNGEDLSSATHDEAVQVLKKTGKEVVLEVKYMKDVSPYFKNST

[1] = plain residues with an end cap or a label only (N-terminal biotin on a linker: ado-ado)
[2] = modified: phospho on T at position -2 from the C-terminal residue

SCRIB_2, Q14160, sequence (Q14160 857-960): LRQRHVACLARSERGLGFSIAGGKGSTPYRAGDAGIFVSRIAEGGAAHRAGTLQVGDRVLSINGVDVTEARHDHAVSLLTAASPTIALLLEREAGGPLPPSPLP
GRIP2_4, Q9C0E4, sequence (Q9C0E4 446-548): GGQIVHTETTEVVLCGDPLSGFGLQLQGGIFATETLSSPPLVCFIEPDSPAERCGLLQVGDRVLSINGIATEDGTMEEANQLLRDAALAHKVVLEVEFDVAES

QLKSGRDSTV [TMEM178A, Q8NBL3]
pKd (GRIP2_4, Q9C0E4; [1]): below the threshold | pKd (SCRIB_2, Q14160; [1]): 3.69 | pKd (GOPC, Q9HD26; [1]): 3.57 | pKd (TJP3_3, O95049; [1]): 3.5 | pKd (MAST1, Q9Y2H9; [1]): 4.02 | pKd (PDZD2_2, O15018; [1]): 4.32 | pKd (LNX1_3, Q8TBB1; [1]): below the threshold | pKd (MAGI2_3, Q86UL8; [1]): below the threshold | pKd (PTPN3, P26045; [1]): 4.4 | pKd (SNTG1, Q9NSN8; [1]): 3.81 | pKd (Inadl_5, Q8NI35; [1]): 3.58 | pKd (FRMPD2_1, Q68DX3; [1]): below the threshold | pKd (GRIP2_3, Q9C0E4; [1]): 3.51 | pKd (MAGI2_5, Q86UL8; [1]): below the threshold | pKd (HTRA4, P83105; [1]): below the threshold | pKd (NHERF4_2, Q86UT5; [1]): 3.62 | pKd (CARD11, Q9BXL7; [1]): below the threshold | pKd (PICK1, Q9NRD5; [1]): 4.35 | pKd (NHERF3_3, Q5T2W1; [1]): below the threshold | pKd (MAGI2_4, Q86UL8; [1]): 3.92 | pKd (GRIP1_2, Q9Y3R0; [1]): below the threshold | pKd (Inadl_6, Q8NI35; [1]): below the threshold | pKd (DLG2_2, Q15700; [1]): 4.4 | pKd (CASK, O14936; [1]): 3.54 | pKd (HTRA1, Q92743; [1]): 4.4 | pKd (SIPA1L2, Q9P2F8; [1]): below the threshold | pKd (LDB3, O75112; [1]): below the threshold | pKd (NHERF3_4, Q5T2W1; [1]): 3.58 | pKd (SNTA1, Q13424; [1]): 3.88

SRSRRRETAL [HPV33-E6_-2P, P06427]
pKd (GRIP2_4, Q9C0E4; [2]): below the threshold | pKd (SCRIB_2, Q14160; [2]): below the threshold | pKd (GOPC, Q9HD26; [2]): below the threshold | pKd (TJP3_3, O95049; [2]): below the threshold | pKd (MAST1, Q9Y2H9; [2]): below the threshold | pKd (PDZD2_2, O15018; [2]): below the threshold | pKd (LNX1_3, Q8TBB1; [2]): below the threshold | pKd (MAGI2_3, Q86UL8; [2]): below the threshold | pKd (PTPN3, P26045; [2]): 4.02 | pKd (SNTG1, Q9NSN8; [2]): below the threshold | pKd (Inadl_5, Q8NI35; [2]): below the threshold | pKd (FRMPD2_1, Q68DX3; [2]): below the threshold | pKd (GRIP2_3, Q9C0E4; [2]): below the threshold | pKd (MAGI2_5, Q86UL8; [2]): below the threshold | pKd (HTRA4, P83105; [2]): below the threshold | pKd (NHERF4_2, Q86UT5; [2]): below the threshold | pKd (CARD11, Q9BXL7; [2]): below the threshold | pKd (PICK1, Q9NRD5; [2]): below the threshold | pKd (NHERF3_3, Q5T2W1; [2]): below the threshold | pKd (MAGI2_4, Q86UL8; [2]): below the threshold | pKd (GRIP1_2, Q9Y3R0; [2]): below the threshold | pKd (Inadl_6, Q8NI35; [2]): below the threshold | pKd (DLG2_2, Q15700; [2]): below the threshold | pKd (CASK, O14936; [2]): below the threshold | pKd (HTRA1, Q92743; [2]): below the threshold | pKd (SIPA1L2, Q9P2F8; [2]): below the threshold | pKd (LDB3, O75112; [2]): below the threshold | pKd (NHERF3_4, Q5T2W1; [2]): below the threshold | pKd (SNTA1, Q13424; [2]): below the threshold

TKEIPNCTSV [SORCS3, Q9UPU3]
pKd (GRIP2_4, Q9C0E4; [1]): below the threshold | pKd (SCRIB_2, Q14160; [1]): 4.44 | pKd (GOPC, Q9HD26; [1]): 3.95 | pKd (TJP3_3, O95049; [1]): 3.54 | pKd (MAST1, Q9Y2H9; [1]): 4.99 | pKd (PDZD2_2, O15018; [1]): 4.72 | pKd (LNX1_3, Q8TBB1; [1]): below the threshold | pKd (MAGI2_3, Q86UL8; [1]): 3.98 | pKd (PTPN3, P26045; [1]): 4.74 | pKd (SNTG1, Q9NSN8; [1]): 4 | pKd (Inadl_5, Q8NI35; [1]): below the threshold | pKd (FRMPD2_1, Q68DX3; [1]): below the threshold | pKd (GRIP2_3, Q9C0E4; [1]): below the threshold | pKd (MAGI2_5, Q86UL8; [1]): 3.99 | pKd (HTRA4, P83105; [1]): 4.44 | pKd (NHERF4_2, Q86UT5; [1]): 3.49 | pKd (CARD11, Q9BXL7; [1]): below the threshold | pKd (PICK1, Q9NRD5; [1]): 4.17 | pKd (NHERF3_3, Q5T2W1; [1]): below the threshold | pKd (MAGI2_4, Q86UL8; [1]): 4.16 | pKd (GRIP1_2, Q9Y3R0; [1]): below the threshold | pKd (Inadl_6, Q8NI35; [1]): below the threshold | pKd (DLG2_2, Q15700; [1]): 4.1 | pKd (CASK, O14936; [1]): below the threshold | pKd (HTRA1, Q92743; [1]): 3.82 | pKd (SIPA1L2, Q9P2F8; [1]): 3.49 | pKd (LDB3, O75112; [1]): below the threshold | pKd (NHERF3_4, Q5T2W1; [1]): below the threshold | pKd (SNTA1, Q13424; [1]): 4.16
